Reference: patent US10414796

Columns and labels:
[1] = target: heterologous livipeptin fraction 2.2HET (HPLC fraction at 2.2 minutes from E. coli transformed with pALVP)
[2] = target: heterologous livipeptin fraction 4.2HET (HPLC fraction at 4.2 minutes from E. coli transformed with pALVP)
[3] = target: T1, heterologous livipeptin fraction 4.4HET (HPLC fraction at 4.4 minutes from E. coli transformed with pALVP)
T1 chain: FR

B1: papain (protein)
chain: IPEYVDWRQKGAVTPVKNQGSCGSCWAFSAVVTIEGIIKIRTGNLNEYSEQELLDCDRRSYGCNGGYPWSALQLVAQYGIHYRNTYPYEGVQRYCRSREKGPYAAKTDGVRQVQPYNEGALLYSIANQPVSVVLEAAGKDFQLYRGGIFVGPCGNKVDHAVAAVGYGPNYILIKNSWGTGWGENGYIRIKRGTGNSYGVCGLYTSSFYPVKN
Which results are given for B1?
anti-proteolytic activity (enzymatic assay) [1]: The anti-proteolytic activity of fractions 2.2, 4.2 and 4.4HET was confirmed through the enzymatic assay described previously, resulting active against papain; anti-proteolytic activity (enzymatic assay) [2]: The anti-proteolytic activity of fractions 2.2, 4.2 and 4.4HET was confirmed through the enzymatic assay described previously, resulting active against papain; anti-proteolytic activity (enzymatic assay) [3]: The anti-proteolytic activity of fractions 2.2, 4.2 and 4.4HET was confirmed through the enzymatic assay described previously, resulting active against papain
